We go through 5 molecules from US20250369960A1, “PER- AND POLYFLUORINATED ALKYL COMPOUND (PFAS) BINDING PROTEINS AND USES THEREOF” (Allonnia, LLC, priority 2022, published 2025).

Experiment [1] in a line: Indirect ELISA on microplates coated with BSA-PFOA conjugate. Format: binding. Particulars: for binding affinity to BSA-PFOA: indirect ELISA, various antibody dilutions; for response to BSA-PFOA at 1:50,000 dilution: antibody dilution 1:50,000. The method, then: Polyclonal rabbit antibodies to PFOA were prepared according to methods well known in the art. E. Harlow & D. Lane, Antibodies: A Laboratory Manual (1988) (published by Cold Spring Harbor Press, Cold Spring Harbor, N.Y.). These polyclonal antibodies were tested for their binding affinity to PFOA (FIG. 1A). PFOA was conjugated to bovine serum albumin by methods well known in the art. G.T. Hermanson, Bioconjugate Techniques (Academic Press, 785 pp., 1995). S.S. Wong, Chemistry of Protein Conjugation and Cross-Linking (CRC Press, 340 pp., 1991); G.T. Hermanson et al., Immobilized Affinity Ligand Techniques (Academic Press, 450 pp., 1992). Microplates were treated with BSA-PFOA conjugate and incubated. After washing with buffer, blocking solution was added followed by varying dilutions of monoclonal antibodies (mABs). The plate was then further incubated. After washing again, anti-rabbit secondary antibodies were added. A color reaction was developed using tetramethyl benzidine (TMB), and the reaction was read at 450 nm.
The results were consistent over various antibody dilutions.

Experiment [2] is described as follows: Competitive ELISA, conjugated PFOA versus free PFOA. The format is binding. The following applies: for lowest PFOA concentration detected: synthetic matrix under laboratory conditions. The method, then:
(§1) Microplates were treated with anti-PFOA mABs. After incubation, the wells were exposed to a biotin-PFOA conjugate and free PFOA compounds, which compete for a finite number of antibody recognition sites. Next, streptavidin-HRP conjugate was added, which binds to the biotin-PFOA molecules. The resultant color reaction was measured spectrophotometrically. P. Langer et al., 78 Proc. Nat'l Acad. Sci USA 6633-37 (1981); A. Forster et al., 13 Nucleic Acids Res. 745-61 (1985); L. Riley et al., 5 DNA 333-37 (1986); M.D. Savage et al., Avidin-Biotin Chemistry: A Handbook (Pierce Chemical Co., 467 pp., 1992). The amount of signal was inversely proportional to the concentration of free-PFOA provided. This approach determined the dynamic range of antibody detection.
Antibodies mAB3 and mAB5 were then tested for dose response to PFOA using the competitive ELISA described in FIG. 1B. The assay was performed using two carrier molecules: (1) biotin (small carrier), and (2) horse radish peroxidase (HRP; large carrier). […] Also observed was the dynamic response of the assay to 0.5 ppb (500 ppt) of PFOA.
A plasmid containing the sequence for antibody mAB3 was expressed in Expi293 cells, and the resulting antibody was purified using Protein A and gel filtration chromatography, as is well known in the art. This antibody was tested for its binding affinity to PFOA using the competitive ELISA described in FIG. 1B.

A short description of experiment [3]: Competitive ELISA, specificity of binding to PFOA compared with octanoic acid. Particulars: FIG. 5. The method, then:
as §1
Antibodies mAB3 and mAB5 were also tested for specificity of binding to PFOA as compared to known analogs, such as OA.

The nature of experiment [4]: Waveguide interferometry, antibody coupled to waveguide surface. Format: binding. Particulars: groundwater from a contaminated site, approximately 7.5 ppb PFOA, compared with 2 ppb PFOA signal. The method, then: The device combines two very sensitive methods, waveguiding and interferometry, to form waveguide interferometry technology used in rapid low-level detection sensing applications. In optical interferometry, small changes in refractive index are measured along the pathway of an optical beam of light during its propagation. As the light propagates, it generates an optical electromagnetic field, a small fraction of which-known as the evanescent field-enables detection by interacting with the changes in refractive index occurring on the waveguide cover layer. […] As PFAS is introduced to the functionalized waveguide, PFAS binding to the antibody displaces the sample solution near the waveguide surface, changing the light beam's velocity. Simultaneously, an adjacent reference beam is left unperturbed and is optically combined with the sensing beam to measure the velocity change. This creates an interference pattern that shifts as the refractive index changes, producing a corresponding change in the relative phase measurement.
Binding of PFAS binding proteins to PFAS was tested using interferometry. Specifically, binding of anti-PFOA antibody mAB5 to PFOA was measured by comparing the interferometry signal for a 1% methanol PBS buffer containing either 0 ppb PFOA (negative control; FIG. 14A) or 2 ppb PFOA (test sample; FIG. 14B). […]

A short description of experiment [5]: Surface plasmon resonance, antibody on CM5 sensor chip. The format is binding. Particulars: for SPR signal with PFOA: PFOA between 41 ppm and 41 ppb; for type of SPR binding interaction: instant association and dissociation curve. The source says: Surface plasmon resonance occurs when a directed light at a specific angle of incidence excites electrons in a thin metal sheet. As a result, the electrons travel parallel to the sheet. This is related to the refractive index of the material. Even a small change alters the response, allowing SPR to be used as a techniques for detection of physical interactions between analytes. […] In this example, the antibody is bound to a sensor chip that carries a matrix of carboxymethylated dextran covalently attached to a gold surface. In this example, the chip is a CM5 sensor chip.
mAb3 (FIG. 11) and mAB5 (FIG. 12) were tested for binding with different concentrations of PFOA ([…], 10 μM, 1 μM, 0.1 μM). The concentration of PFOA tested was between ˜41 ppm and 41 ppb.

Experiment [6] can be described thus: Competitive ELISA, binding affinity to other PFAS compounds. The method, then: as §1
The mAB3 produced in vitro was also tested for its binding affinity to other PFAS compounds, including PFOS, PFHxS, and PFBA.

B1: mAB2: rabbit anti-PFOA monoclonal antibody, heavy chain variable SEQ ID NO: 16, light chain variable SEQ ID NO: 21 (antibody, listed as Oryctolagus cuniculus, V domains shown)
VH: QSVKESEGGLFKPTDNLTLTCAVSRFSLSSYGVSWVRQAPGNGLEWIGYIYTDGSAYYASWAKSRSTITRNTNLNTVTLKMTSLTAADTATYFCARHSSGWGIDYFNVWGPGTLVTVSS
VL: AAVLTQTPSSVSAAVGGTVTINCQASQSVYNNNYLSWYQQKPGQPPKLLIYLASTLASGVPSRFSGSGSGTEFTLTISDLECDDGATYYCAGGVTSSDRPFGGGTEVVVKG
Regarding B1, the “binding affinity to BSA-PFOA” value in experiment [1] is recorded as “no significant binding affinity”.

B2: mAB5: rabbit anti-PFOA monoclonal antibody, heavy chain variable SEQ ID NO: 19, light chain variable SEQ ID NO: 24 (antibody, listed as Oryctolagus cuniculus, V domains shown)
VH: QSVKESEGGLFKPTDTLTLTCTASGFSLSSYGVIWVRQAPGKGLQWIGFINIYGTPSYASWAMGRSTITGNTNLNTVILKMTSLTVADTATYFCASSVGSDGYLYSSDIWGPGTLVTVSS
VL: DPVLTQTPSSVSAAVGGTVTINCQASQSVYNNKCLAWYQQKPGQPPKLLIYGASTLASGVPSRFSGSGSGTQFTLTISDLECDDAATYYCAGGYYSEIHFGGGTEVVVKG
As for B2, the “lowest PFOA concentration detected” value in experiment [2] was found to be 0.5 ppb. Moreover, in experiment [1], the “response to BSA-PFOA at 1:50,000 dilution” value is “negligible” and the “binding affinity to BSA-PFOA” value was “best binding affinity”. Further, in experiment [3], the “response to PFOA versus OA” value was found to be 78 fold. In addition, the “interferometry signal in groundwater” value in experiment [4] is “consistent and approximately proportional to the concentration of PFOA”. In experiment [5], the “SPR signal with PFOA” value was “concentration dependent signal” and the “type of SPR binding interaction” value is “steady-state interaction”.

B3: mAB1: rabbit anti-PFOA monoclonal antibody, heavy chain variable SEQ ID NO: 15, light chain variable SEQ ID NO: 20 (antibody, listed as Oryctolagus cuniculus, V domains shown)
VH: QSVKESEGGLFKPTDTLTLTCTASGFSLSSYGVSWVRQAPGNGLEWIGSIEDGGSAYYASWAKSRSTITSNTNLNTVTLQMTSLTAADTATYFCGSLSIGSAYPGIWGPGTLVTVSS
VL: AIVMTQTPSSKSVPVGDTVTIKCQASQSIGTRLAWFQQKPGQPPKRLIYSASTLASGVPSRFSGSGSGTQFTLTISDVVCDDAAAYYCGGYKSSSSDGIAFGGGTEVVVKG
With B3, the “binding affinity to BSA-PFOA” value in experiment [1] is listed as “no significant binding affinity”.

B4: mAB4: rabbit anti-PFOA monoclonal antibody, heavy chain variable SEQ ID NO: 18, light chain variable SEQ ID NO: 23 (antibody, listed as Oryctolagus cuniculus, V domains shown)
VH: QEQLEESRGGLIKPTDTLTLTCTASGFSLSNYGINWVRQAPGEGLEWIGAIRGSGFIYYATWAKSRSTITRNTNLNTVTLKMTSLTAADTATYFCARRDGLYSAMDPWGPGTLVTVSS
VL: DPVLTQTPSSTSAAVGGTVTISCQSSDSVYKNNYLAWFQQKPGQPPKVLIYHASKLASGVPSRFSGSGSGTQFTLTISGVQCDDAATYYCLGEYSDTHVFGGGTEVVVKG
For the molecule B4, the “binding affinity to BSA-PFOA” value in experiment [1] is reported as “no significant binding affinity”.

B5: mAB3: rabbit anti-PFOA monoclonal antibody, heavy chain variable SEQ ID NO: 17, light chain variable SEQ ID NO: 22 (antibody, listed as Oryctolagus cuniculus, V domains shown)
VH: QSLEESEGGLFKPGGTLTLTCTVSGFSLNIYSISWVRQAPGKELEWIGTMSNVDATYYANWAKSRSTITRNINESTVTLKMPSLTVADTATYFCARYIYGAGYDIWGPGTLVTVSS
VL: ADIVMTQTPASVEAAVGGTVTIKCQASQSISSWLSWYQQKPGQPPKLLIYKASTLASGVPSRFKGSGSGTEYTLTISGVQCADAATYYCQSVYYSSSTNYGNTFGGGTEVVVKG
Take B5: the “binding affinity to PFOA” value in experiment [2] (antibody expressed in Expi293 cells, purified using Protein A and gel filtration chromatography) is recorded as “about 1 ppt”. For the same molecule, the “binding affinity to PFOA” value in experiment [2] (antibody isolated from rabbit serum) is “about 500 ppt”. Moreover, in experiment [2], the “lowest PFOA concentration detected” value worked out at 0.5 ppb. For the same molecule, the “response to BSA-PFOA at 1:25,000 dilution compared with 1:5,000” value in experiment [1] (antibody dilution 1:25,000 vs 1:5,000) is “approximately four-fold lower”. Further, in experiment [1], the “response to BSA-PFOA at 1:50,000 dilution” value is “very depressed” and the “binding affinity to BSA-PFOA” value was “best binding affinity”. Moreover, in experiment [3], the “affinity to OA as compared to PFOA” value is “six-fold lower”. Besides, the “binding to PFOS and other PFAS compounds in addition to PFOA” value in experiment [6] (FIG. 9) was “can bind”. The “binding affinity to PFOS as compared to PFOA” value in experiment [6] (purified antibody produced in vitro) was 99%. Moreover, in experiment [5], the “SPR signal with PFOA” value is recorded as “concentration dependent signal” and the “type of SPR binding interaction” value is recorded as “steady-state interaction”.
